Data set [1] deals with the molecule itself. Put plainly: cryo-EM structure.
Data set [2] deals with Escherichia coli GroEL (wild-type, tetradecamer) (E. coli, UniProt P0A6F5 1-548). Put plainly: cryo-EM structure.
Sequence of Escherichia coli GroEL (wild-type, tetradecamer) (P0A6F5 whole entry): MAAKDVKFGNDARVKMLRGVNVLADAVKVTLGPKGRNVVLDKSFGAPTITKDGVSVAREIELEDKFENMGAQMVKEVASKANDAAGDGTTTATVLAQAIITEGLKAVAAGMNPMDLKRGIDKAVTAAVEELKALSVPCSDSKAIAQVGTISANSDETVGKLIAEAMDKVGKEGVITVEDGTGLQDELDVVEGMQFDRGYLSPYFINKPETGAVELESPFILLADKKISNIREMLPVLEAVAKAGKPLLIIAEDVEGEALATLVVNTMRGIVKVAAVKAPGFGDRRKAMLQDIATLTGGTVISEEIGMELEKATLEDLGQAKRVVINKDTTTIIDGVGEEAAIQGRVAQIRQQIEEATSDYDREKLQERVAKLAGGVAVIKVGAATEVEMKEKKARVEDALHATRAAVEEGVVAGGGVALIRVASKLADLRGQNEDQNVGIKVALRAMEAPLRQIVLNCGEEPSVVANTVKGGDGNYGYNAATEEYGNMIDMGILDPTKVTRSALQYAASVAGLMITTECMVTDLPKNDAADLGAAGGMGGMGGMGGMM

B1: Escherichia coli GroES (heptameric co-chaperonin) (natural protein)
chain: MNIRPLHDRVIVKRKEVETKSAGGIVLTGSAAAKSTRGEVLAVGNGRILENGEVKPLDVKVGDIVIFNDGYGVKSEKIDNEEVLIMSESDILAIVEA
In the case of B1, the binding result in data set [1] and in data set [2] was “binds” throughout.

Values taken from publication doi:10.1101/2023.05.29.542693 (bioRxiv, 2023).
